Results reported in patent US9745384B2, “Peptides useful for modulating histone demethylase function” (The Brigham and Women's Hospital, Inc., priority 2012, dated 2017).
Ends that are not written are not given here.

Assays:
His-LSD2 [1] = target: T1, His-LSD2 (Homo sapiens, UniProt Q8NB78); assay: GST-pulldown of His-LSD2 by GST-NPAC proteins; format: binding; settings: coomassie blue staining
T1 construct: typically 0.5 μg full-length His-LSD2; made in house; host or cells: Sf9 insect cells
T1 sequence (Q8NB78 1-822): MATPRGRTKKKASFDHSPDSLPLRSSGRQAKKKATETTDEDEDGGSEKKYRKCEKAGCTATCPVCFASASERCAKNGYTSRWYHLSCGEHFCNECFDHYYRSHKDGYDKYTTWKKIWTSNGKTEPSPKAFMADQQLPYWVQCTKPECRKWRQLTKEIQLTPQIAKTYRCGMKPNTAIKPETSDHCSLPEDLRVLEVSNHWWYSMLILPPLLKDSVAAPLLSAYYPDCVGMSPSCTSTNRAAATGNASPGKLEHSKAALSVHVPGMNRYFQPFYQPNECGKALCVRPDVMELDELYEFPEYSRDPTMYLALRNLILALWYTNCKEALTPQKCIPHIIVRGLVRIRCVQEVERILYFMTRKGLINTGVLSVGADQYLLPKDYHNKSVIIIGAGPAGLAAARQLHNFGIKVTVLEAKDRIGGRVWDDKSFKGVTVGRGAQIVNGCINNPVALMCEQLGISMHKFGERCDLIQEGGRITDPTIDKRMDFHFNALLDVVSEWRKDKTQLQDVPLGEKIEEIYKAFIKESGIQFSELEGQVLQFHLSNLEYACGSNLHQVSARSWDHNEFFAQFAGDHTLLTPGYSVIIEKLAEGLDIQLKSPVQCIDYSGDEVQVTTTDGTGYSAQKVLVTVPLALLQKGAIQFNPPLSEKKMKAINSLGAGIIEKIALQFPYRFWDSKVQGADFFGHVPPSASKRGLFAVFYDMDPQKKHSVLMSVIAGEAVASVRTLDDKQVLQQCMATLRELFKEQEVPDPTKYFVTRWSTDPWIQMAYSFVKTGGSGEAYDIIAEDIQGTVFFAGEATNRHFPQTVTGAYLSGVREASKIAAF
Protocol: […] GST or GST-NPAC fusion proteins were bound to glutathione agarose, and were incubated with 2 μg full-length His-LSD2 overnight in 50 mM NaPO4 pH 7.4, 150 mM NaCl, 0.5% NP-40, 5% glycerol, 10 μM ZnSO4, 1 mM MgCl2, 1 mM DTT, 0.1 mM PMSF at 4° C. After washed 4 times with same buffer at 4° C., glutathione agarose beads were boiled in 1×SDS sample loading buffer. Elute was resolved on a 15% SDS-PAGE gel and stained by coomassie blue.

His-LSD2 [2] = target: T1, His-LSD2; assay: Nucleosome demethylation assay (NPAC cofactor activity for LSD2, immunoblot); format: biochemical; settings: threshold dosage of His-LSD2; nucleosomes purified from HeLa
Protocol: For nucleosome demethylation assays, typically 0.5 μg full-length His-LSD2, 1 μg NPAC protein or peptides, and 2 μg nucleosomes purified from HeLa were used, and demethylation efficiency was analyzed by SDS-PAGE electrophoresis and immunoblot using methylation specific anti-histone H3 antibodies as previously described (Shi et al. 2004).

LSD2 (residues 51-822) = target: T2, LSD2 (residues 51-822) (Homo sapiens, UniProt Q8NB78); assay: ITC binding of wild-type and mutant NPAC peptides (residues 214-225) with LSD2; settings: 15 °C; 3 mM NPAC peptide injected into 0.2 mM LSD2
T2 construct: Human LSD2 (residues 51-822) was subcloned into a pFastBacl derivative; His6 (cleaved yes); made in house; host or cells: Sf9 insect cells (baculovirus)
T2 sequence (Q8NB78 51-822): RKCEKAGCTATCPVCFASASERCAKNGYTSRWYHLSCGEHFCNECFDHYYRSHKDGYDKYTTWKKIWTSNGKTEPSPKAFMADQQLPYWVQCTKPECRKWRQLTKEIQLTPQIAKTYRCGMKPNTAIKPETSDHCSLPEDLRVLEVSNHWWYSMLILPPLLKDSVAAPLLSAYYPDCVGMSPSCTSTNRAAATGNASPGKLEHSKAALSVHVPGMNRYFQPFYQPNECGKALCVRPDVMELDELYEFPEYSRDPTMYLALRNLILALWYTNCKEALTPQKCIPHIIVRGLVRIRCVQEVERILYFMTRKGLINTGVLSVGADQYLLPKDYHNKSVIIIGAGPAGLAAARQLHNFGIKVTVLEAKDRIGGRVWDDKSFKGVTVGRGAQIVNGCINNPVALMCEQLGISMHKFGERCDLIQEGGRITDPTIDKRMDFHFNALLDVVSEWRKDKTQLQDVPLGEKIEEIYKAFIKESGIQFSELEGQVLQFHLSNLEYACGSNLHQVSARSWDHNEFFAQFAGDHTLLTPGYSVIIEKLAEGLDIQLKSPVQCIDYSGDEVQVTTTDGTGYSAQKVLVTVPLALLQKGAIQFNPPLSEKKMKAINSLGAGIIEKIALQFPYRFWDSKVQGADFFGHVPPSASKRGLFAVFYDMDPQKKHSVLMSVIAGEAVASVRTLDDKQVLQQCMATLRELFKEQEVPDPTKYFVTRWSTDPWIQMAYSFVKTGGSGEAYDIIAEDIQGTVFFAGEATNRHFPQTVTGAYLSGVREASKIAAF
Protocol: All proteins and peptides were prepared in 10 mM HEPES, pH 8.0, and 0.1 M NaCl. The data were fitted by software Origin 7.0.

NP.d7: NPAC residues 152-186, containing the AT hook motif (SERGSKSPLKRAQEQSPRKRGRPPKDEKDLTIPES; also: fused to dimerising Fc or GST)
LSD2 binding (GST-pulldown) (His-LSD2 [1]): but not NP.d7 (residues 152-186, containing the AT hook motif, lane 4), is sufficient for LSD2 interaction
Cofactor activity: stimulation of LSD2 demethylation of nucleosomal H3K4me2 (His-LSD2 [2]): but not NP.d7 or NP.d9, significantly enhances LSD2 histone demethylase activity

CC(C)C[C@H](NC(=O)[C@H](Cc1ccccc1)NC(=O)[C@H](Cc1c[nH]cn1)NC(=O)[C@H](Cc1c[nH]cn1)NC(=O)[C@H](C)NC(=O)[C@H](C)NC(=O)[C@@H]1CCCN1C(=O)[C@H](C)N)C(=O)N[C@@H](CC(C)C)C(=O)N[C@@H](CO)C(=O)N[C@@H](CCC(N)=O)C(=O)N[C@H](C(=O)O)[C@@H](C)O [NPAC.214-225.M8]
Δ H (LSD2 (residues 51-822)): -8.288 ± 0.101 kcal/mol
Δ S (LSD2 (residues 51-822)): −1.3 cal/mol/deg

B1: NP.d2: GST-tagged NPAC truncation, residues 1-252 (protein)
chain: MAAVSLRLGDLVWGKLGRYPPWPGKIVNPPKDLKKPRGKKCFFVKFFGTEDHAWIKVEQLKPYHAHKEEMIKINKGKRFQQAVDAVEEFLRRAKGKDQTSSHNSSDDKNRRNSSEERSRPNSGDEKRKLSLSEGKVKKNMGEGKKRVSSGSSERGSKSPLKRAQEQSPRKRGRPPKDEKDLTIPESSTVKGMMAGPMAAFKWQPTASEPVKDADPHFHHFLLSQTEKPAVCYQAITKKLKICEEETGSTSIQ
modifications: left off: a dimerising Fc or GST
LSD2 binding (GST-pulldown) (His-LSD2 [1]): capable of directly interacting with LSD2
Cofactor activity: stimulation of LSD2 demethylation of nucleosomal H3K4me2 (His-LSD2 [2]): significantly enhance LSD2 demethylase activity

B2: NP.d9: NP.d3 with deletion of amino acids 214-222 (protein)
chain: SERGSKSPLKRAQEQSPRKRGRPPKDEKDLTIPESSTVKGMMAGPMAAFKWQPTASEPVKDASQTEKPAVCYQAITKKLKICEEETGSTSIQ
modifications: left off: a dimerising Fc or GST; small tags and cut ends
LSD2 binding (GST-pulldown) (His-LSD2 [1]): completely abolishes LSD2 binding
Cofactor activity: stimulation of LSD2 demethylation of nucleosomal H3K4me2 (His-LSD2 [2]): but not NP.d7 or NP.d9, significantly enhances LSD2 histone demethylase activity

B3: NP.d1: GST-tagged NPAC truncation, PWWP domain, residues 1-150 (protein)
chain: MAAVSLRLGDLVWGKLGRYPPWPGKIVNPPKDLKKPRGKKCFFVKFFGTEDHAWIKVEQLKPYHAHKEEMIKINKGKRFQQAVDAVEEFLRRAKGKDQTSSHNSSDDKNRRNSSEERSRPNSGDEKRKLSLSEGKVKKNMGEGKKRVSSG
modifications: left off: a dimerising Fc or GST
LSD2 binding (GST-pulldown) (His-LSD2 [1]): Neither the PWWP domain (SEQ ID NO: 63) (NP.d1) nor the dehydrogenase domain (NP.d5) interacts with LSD2
Cofactor activity: stimulation of LSD2 demethylation of nucleosomal H3K4me2 (His-LSD2 [2]): Neither the PWWP domain (SEQ ID NO: 63) (NP.d1, residues 1-150) nor the dehydrogenase domain (NP.d5, residues 262-553) stimulated LSD2

B4: NP.d3: GST-tagged NPAC truncation, residues 152-252 (protein)
chain: SERGSKSPLKRAQEQSPRKRGRPPKDEKDLTIPESSTVKGMMAGPMAAFKWQPTASEPVKDADPHFHHFLLSQTEKPAVCYQAITKKLKICEEETGSTSIQ
modifications: left off: a dimerising Fc or GST
LSD2 binding (GST-pulldown) (His-LSD2 [1]): capable of directly interacting with LSD2
Cofactor activity: stimulation of LSD2 demethylation of nucleosomal H3K4me2 (His-LSD2 [2]): significantly enhance LSD2 demethylase activity

B5: NP.d4: GST-tagged NPAC truncation, residues 152-553 (protein)
chain: SERGSKSPLKRAQEQSPRKRGRPPKDEKDLTIPESSTVKGMMAGPMAAFKWQPTASEPVKDADPHFHHFLLSQTEKPAVCYQAITKKLKICEEETGSTSIQAADSTAVNGSITPTDKKIGFLGLGLMGSGIVSNLLKMGHTVTVWNRTAEKCDLFIQEGARLGRTPAEVVSTCDITFACVSDPKAAKDLVLGPSGVLQGIRPGKCYVDMSTVDADTVTELAQVIVSRGGRFLEAPVSGNQQLSNDGMLVILAAGDRGLYEDCSSCFQAMGKTSFFLGEVGNAAKMMLIVNMVQGSFMATIAEGLTLAHVTGQSQQTLLDILNQGQLASIFLDQKCQNILQGNFKPDFYLKYIQKDLRLAIALGDAVNHPTPMAAAANEVYKRAKALDQSDNDMSAVYRAYIH
modifications: left off: a dimerising Fc or GST
LSD2 binding (GST-pulldown) (His-LSD2 [1]): capable of directly interacting with LSD2
Cofactor activity: stimulation of LSD2 demethylation of nucleosomal H3K4me2 (His-LSD2 [2]): significantly enhance LSD2 demethylase activity

B6: NP.d5: GST-tagged NPAC truncation, dehydrogenase domain, residues 262-553 (protein)
chain: SITPTDKKIGFLGLGLMGSGIVSNLLKMGHTVTVWNRTAEKCDLFIQEGARLGRTPAEVVSTCDITFACVSDPKAAKDLVLGPSGVLQGIRPGKCYVDMSTVDADTVTELAQVIVSRGGRFLEAPVSGNQQLSNDGMLVILAAGDRGLYEDCSSCFQAMGKTSFFLGEVGNAAKMMLIVNMVQGSFMATIAEGLTLAHVTGQSQQTLLDILNQGQLASIFLDQKCQNILQGNFKPDFYLKYIQKDLRLAIALGDAVNHPTPMAAAANEVYKRAKALDQSDNDMSAVYRAYIH
modifications: left off: a dimerising Fc or GST
LSD2 binding (GST-pulldown) (His-LSD2 [1]): Neither the PWWP domain (SEQ ID NO: 63) (NP.d1) nor the dehydrogenase domain (NP.d5) interacts with LSD2
Cofactor activity: stimulation of LSD2 demethylation of nucleosomal H3K4me2 (His-LSD2 [2]): Neither the PWWP domain (SEQ ID NO: 63) (NP.d1, residues 1-150) nor the dehydrogenase domain (NP.d5, residues 262-553) stimulated LSD2

B7: NP.d6: NPAC with deletion of the linker region (residues 152-252) (protein)
chain: MAAVSLRLGDLVWGKLGRYPPWPGKIVNPPKDLKKPRGKKCFFVKFFGTEDHAWIKVEQLKPYHAHKEEMIKINKGKRFQQAVDAVEEFLRRAKGKDQTSSHNSSDDKNRRNSSEERSRPNSGDEKRKLSLSEGKVKKNMGEGKKRVSSGSAADSTAVNGSITPTDKKIGFLGLGLMGSGIVSNLLKMGHTVTVWNRTAEKCDLFIQEGARLGRTPAEVVSTCDITFACVSDPKAAKDLVLGPSGVLQGIRPGKCYVDMSTVDADTVTELAQVIVSRGGRFLEAPVSGNQQLSNDGMLVILAAGDRGLYEDCSSCFQAMGKTSFFLGEVGNAAKMMLIVNMVQGSFMATIAEGLTLAHVTGQSQQTLLDILNQGQLASIFLDQKCQNILQGNFKPDFYLKYIQKDLRLAIALGDAVNHPTPMAAAANEVYKRAKALDQSDNDMSAVYRAYIH
modifications: left off: a dimerising Fc or GST; small tags and cut ends
LSD2 binding (GST-pulldown) (His-LSD2 [1]): abolishes NPAC-LSD2 interaction
Cofactor activity: stimulation of LSD2 demethylation of nucleosomal H3K4me2 (His-LSD2 [2]): abolishes cofactor activity
